Data taken from PMC7082573, “Aspergillus fumigatus Mitochondrial Acetyl Coenzyme A Acetyltransferase as an Antifungal Target” (Applied and Environmental Microbiology, 2020).

B1: Aspergillus fumigatus acetyl-CoA acetyltransferase AfERG10A (residues 36 to 433) (enzyme, UniProt B0XMC1 36-433, looked up)
chain: EIQEAYILSGARTPTAKFNGSFVSVSAPELGAVAIKSAVSKSGVPVEKITDVYMGNVLQGAVGQAPARQASMFAGLSPTVESMTVNKVCASGLKAVALAAQNIQLGLAEAQVAGGMENMSRVPYYLPRSTQLPPFGEIKLQDGLIQDGLWDVYNQFHMGICAEKTAKKYEISREEQDQYAIQSYQRAQAAWKENKFAEEIAPVTVKGKKGETVVERDEGYENLRIDKMATLKPAFLRDGTGTVTAGNASTMNDGASALVLGSKAIAREFAQGNRALARIVSTADAAIDPVDFPVAPAKAVPIALERAGITKDQVAVWEFNEAFAAVIKANEKILGLQNARVNPLGGAISLGHALGSSGSRILVTLLHQLQPGEYGVAAICNGGGAATAMVVQKLDRVD
notes: AfERG10A (AFUB_000550), mitochondrial acetyl-CoA acetyltransferase of Aspergillus fumigatus, whole protein 433 amino acids; Cloned from cDNA into pGEX-6P1 with primers P13/P14; After PreScission cleavage a few vector residues probably remain at the N-terminus; Primer P13 carries a Lys codon (AAA) before GAG (Glu), so the construct may begin one residue earlier or have an added Lys; also called …

Key:
[1] = target: T1, AfERG10A (Aspergillus fumigatus, UniProt B0XMC1); test: X-ray crystal structure of the complex, […] Å; details: crystals from 0.1 M HEPES pH 7.0, 2 M ammonium sulfate with CoA; CoA binding site
T1 construct: gene erg10A; pGEX-6P1 GST tag cleaved by PreScission; E. coli BL21(DE3)/pLysS; homotetramer
T1 sequence (B0XMC1 36-433): B1 chain

[2] = target: the molecule itself; test: crystal structure; apo and CoA-complexed AfERG10A; sitting drop at room temperature, 0.1 M HEPES (pH 7.0), 2 M ammonium sulfate, in the absence or presence of CoA; refined to 2.4 Å; four molecules in one asymmetric unit
[3] = substrate: CC(=O)SCCNC(=O)CCNC(=O)[C@H](O)C(C)(C)COP(=O)(O)OP(=O)(O)OC[C@H]1O[C@@H](n2cnc3c(N)ncnc32)[C@H](O)[C@@H]1OP(=O)(O)O; test: purified protein; type: biochemical, Aspergillus fumigatus; details: 50 mM Tris-HCl pH 7.4, 0.2 mM NADH, 0.5 mM DTT, 30°C
[4] = substrate: CC(=O)CC(=O)SCCNC(=O)CCNC(=O)[C@H](O)C(C)(C)COP(=O)(O)OP(=O)(O)OC[C@H]1O[C@@H](n2cnc3c(N)ncnc32)[C@H](O)[C@@H]1OP(=O)(O)O; test: Mg2+ method, degradative (thiolysis) reaction, steady-state kinetics; type: biochemical, Aspergillus fumigatus; details: CoA co-substrate (60 μM in the mixture as printed), 50 mM Tris-HCl pH 8.1, 20 mM MgCl2, 40 mM KCl, 30°C
Excerpt: (§1) Mg2+ method, degradative (thiolysis) reaction, steady-state kinetics on AfERG10A

[5] = substrate: CC(C)(COP(=O)(O)OP(=O)(O)OC[C@H]1O[C@@H](n2cnc3c(N)ncnc32)[C@H](O)[C@@H]1OP(=O)(O)O)[C@@H](O)C(=O)NCCC(=O)NCCS; test: as above; type: biochemical, Aspergillus fumigatus; details: acetoacetyl-CoA co-substrate (10 μM in the mixture as printed), 50 mM Tris-HCl pH 8.1, 20 mM MgCl2, 40 mM KCl, 30°C
Excerpt: as §1

Molecule	X-ray crystal structure of the complex, 2.4 Å [1]	stoichiometry N [2]	Km [3]	kcat [3]	Km [4]	kcat [4]	Km [5]	kcat [5]
CC(C)(COP(=O)(O)OP(=O)(O)OC[C@H]1O[C@@H](n2cnc3c(N)ncnc32)[C@H](O)[C@@H]1OP(=O)(O)O)[C@@H](O)C(=O)NCCC(=O)NCCS [CoA]	structures of apo- and CoA-complexed AfERG10A were determined	–	–	–	–	–	–	–
B1	–	4	232 ± 49 µM	7 ± 0.4 s⁻¹	43 ± 9 µM	3 ± 0.2 s⁻¹	26 ± 5 µM	5 ± 0.2 s⁻¹
